Assay: soluble on expression in E. coli; label from the status in PepcDB or PDB records

Sequence | soluble on expression in E. coli
MDLTVPVEYSRAGNTTHSGNVHAIQDDEKFSYGTAGFRFKSEKLPFIVFRCAYVASLRARQLNSAIGVMITASHNPSCDNGVKLVDPSGDMLNEQWEIYATEVVNATDAELPAAVRALEKQISVGKTQLSRVVCGMDTRCSGPCLMNAARAGAALFNVQFDDIGVVSTPMLHYAVKAFNEPKFAEPTHDGYYSAIADSFKKLYEITEEPKDSRYQPKVIVDCANGVGAPRFRNLLERIPSSLLEVEFRNESEELNQGCGADFVKISQKLPANFSPTAAEPKCASFDGDADRLMYFRAKASENSESNDAELFDGDKIAVLIVTYIREQLKDYENSTPMERLRLGIVQTAYANGSSTRYIREKLGIEPIIVPTGVKHLHEAASEFDIGIYFEANGHGTVVFSEIFDRIIRRTPTESLPLRRLALFSRVINETVGDAFADLLAVEAVLRHYGWSMDDWAEKLYRDVPNVQIKVPVIDRSIFKTTNAEQTLVKPVGIQKMIDTDVAKYNNSRAFIRPSGTENIVRVYAEADTVENTLQLGKSLEQVVLNLCNSN | not soluble
MSSATASIKLSNGVEMPVIGLGTWQSSPAEVITAVKTAVKAGYRLIDTASVYQNEEAIGTAIKELLEEGVVKREELFITTKAWTHELAPGKLEGGLRESLKKLQLEYVDLYLAHMPAAFNDDMSEHIASPVEDVWRQFDAVYKAGLAKAVGVSNWNNDQISRALALGLTPVHNSQVELHLYFPQHDHVDFCKKHNISVTSYATLGSPGRVNFTLPTGQKLDWAPAPSDLQDQNVLALAEKTHKTPAQVLLRYALDRGCAILPKSIQENRIKENFEVFDFSLTEEDIAKLEESKNSQRLFLQDFMTGHPEDAFAAERK | soluble
HHHHHHGCMSGRKPIIGVMGPGKADTAENQLVMANELGKQIATHGWILLTGGRSLGVMHEAMKGAKEAGGTTIGVLPGPDTSEISDAVDIPIVTGLGSARDNINALSSNVLVAVGMGPGTAAEVALALKAKKPVVLLGTQPEAEKFFTSLDAGLVHVAADVAGAIAAVKQLLAKLN | soluble
MSTAYEVQCRGLPWEATEQELRDFFGNNGIESLEIPRRNGRTSGDAKVVFTNEEDYNNALKKDREHLGSRYIEVFPAGGAPTRRGDRGERGDRGDRDHYRSRGAPPRDRYSDRGGPRSSGPDSIVRLRGLPFSVTSRDISDFLAPLPIVRDGILLPDQQRARPGGEAYVCFETMESVQIAKQRHMKNIGHRYIEVFEATHRDLSRFAEENDLRVPRFGPPPFASAPQTAPRGAYDPYSQPTDPYRNATDYRRAAEPEDPYARSRAPSVQDYGVRASYDPYTQPAAPVSSYPSQQQPSAGYYDNYAPKTAYESYGRERGPDPRDVRDPRDSRMPDPRDSRALSDPYAAESRYSEYGYESREPYWRGGSGGPPSIGGGVGGGGAPLAPTGRDPYSVGESWANGAGGPGGPPPVSSDRDRYGSGGYASEPYAQREAGGAMRRSEYGRPDDRYSKPEPYGYSRDRDYGAPQNQHFVLRMRGVPFRASEADVYDFFHPIRPNQVELLRDHQFQRPSGDARVIFYNRKDYDDALMKDKQYMGERYIEMIPDNGRY | not soluble
MVTAREVGRIGLRKLLQRIGIVAESMTPLATDPVEVTQLLDARWYDERLRALADELGRDPDSVRAEAAGYLREMAASLDERAVQAWRGFSRWLMRAYDVLVDEDQITQLRKLDRKATLAFAFSHRSYLDGMLLPEAILANRLSPALTFGGANLNFFPMGAWAKRTGAIFIRRQTKDIPVYRFVLRAYAAQLVQNHVNLTWSIEGGRTRTGKLRPPVFGILRYITDAVDEIDGPEVYLVPTSIVYDQLHEVEAMTTEAYGAVKRPEDLRFLVRLARQQGERLGRAYLDFGEPLPLRKRLQEMRADKSGTGSEIERIALDVEHRINRATPVTPTAVVSLALLGADRSLSISEVLATVRPLASYIAARNWAVAGAADLTNRSTIRWTLHQMVASGVVSVYDAGTEAVWGIGEDQHLVAAFYRNTAIHILVDRAVAELALLAAAETTTNGSVSPATVRDEALSLRDLLKFEFLFSGRAQFEKDLANEVLLIGSVVDTSKPAAAADVWRLLESADVLLAHLVLRPFLDAYHIVADRLAAHEDDSFDEEGFLAECLQVGKQWELQRNIASAESRSMELFKTALRLARHRELVDGADATDIAKRRQQFADEIATATRRVNTIAELARRQLEHHHHHH | not soluble
GPGSMRAVVFSDVASAELREHIRAIASTSYAEVVYVDVSESAEADLATAWHTRYGGASHSPPAARDELDDLKNTFVCYLTEQKTIEDSDVVYAVFVAEVHTLVLTPSVTLTPLMHATADGSVSARKAAIESFFSVAPSSSSAEVIVVEGGDGAGKETQTGLLVRRVHAAGDEVHALDFPNEKGLYGGLVRAVLSGKKGPISELNPQLFSFLYSLNRFGCARQLHFWLRRGSSVVLDRYYTANFGHQASKLPPEEREAFISDLEFMEVEWLGLPRATYVLYLDLPPAVALEAMRQDATRKQLDIHETAGSDYKERVRQTYRWCCEHLPGWHHIECFSDDGRRLTREEVHASITSHLRDAGSRAIGAPS | not soluble
MEKNEKNGVFSRVRSRWRSIFSKKANPVKLRDCNRLTFERILSDPNEQIGTIVAQATVEPITLPNGGGIALIQETTLYEEDYGLEDSSNFPIISETAQSLRRRMRRLSSGDLNVIRRMTEEIDFDLKNIIYDGNEITGETDADNGNDRACFKPGPDYPIDQQMLFLKQCIKKIDTRPPNMYYLTNGWSVDNFEALFKYMIRSGEDCSRDTLLRVEFRDCVVSLKSLYDFIEEYATFKGVKMHSDYVYAIVHSRNEKLERRLRGAIDSFMEIESKIRQARISYVSSFTINSPHTPNVSIIVKFCCLKPCNSDAKTKMRQISVQVDHVTGRSRMSLPDVRQHEGLVCECLGDFSLIRHRPTSVPVTKILDEHPPLIVDEEVRLKSSYQFNPVTGEPIPDDEQQQEQTEIEVNKKIKKPKIVPNQTLLGNEHDIFPRFSIFIGFYKASIEDPLEINDFVEMFPLILVLLEKAGIQELEDGDAPEKSVSKYPKKRSIVDGASSETCEDTQSVGSSESSEPRSPEFTEYSESEDTAADSETSDSESSSEDEKENMKSSIKELELIKDAPEDL | soluble
MGSDKIHHHHHHMIQVPASFDIQGHRGCRGLLPENTIAAFTKALLLGVTTLEFDLVISKDNRVVVSHDTFFHHEITMMVDGEDVTEANEKNFNLYAMNYADIKEIDVGMKTHPRFKSQKKVPAVKPLFRELIETAEKLSAKIQYNGEIKSTVEGDNIDHPNIALFCDLVVAEIKKAHITDRFTLQSFDVRALEYMHSQYPDIKLSYLVETKGTLKKQLEKLSFTPAVYSPDVTLVSKKDIDAAHKLGMRVIPWTVNTKEEIETLISLGVDGIITDYPDLFFEK | not soluble
MTSSDQSPSHDVFVYGSFQEPAVVNLILECAPVMVSAQLHGYHLYRLKGRLHPCISPSDNGLINGKILTGLTDSQLESLDMIEGTEYVRKTVEVVLTDTLEKKQVETIVWANKDDPNMYGEWDFEEWKRLHMEKFIEAATKFMEWKKNPNGRSREEFEKFVQDDSSPASA | soluble
MRLILLALLALVFPAVAQEDMPAKVWLEKMSQALKEKEFKASIIQLQADHIRPLVYLHGKVNNQEVAFLEYLNGPPKNAVRVGNRVTFIEHDQPAYSILSNHIQGVWPAAFSSQMSDLEVGYQFVMGGRTRIAGRPGQMIRLLPNDEYRYGFQIWLDMDTYLPLRYDMLTQDKQLLEQLMVIELIEFSEPPSILQEAYKQEWPAVIDQAERQDGQNWQFSWLPAGFSVVVRDHHRLIGSHEAVEYIALTDGLANISIYVARAGSTPLPEELITRNGLSLVAEKVGNAEVVAVGKVPTETLARIAKSLMLK | not soluble
MSRTILQPGQIEAAANIPPHLHQPSRDLFARRGERLLQLAEGHPMGDYLRLVAGLCRLQQALLDNPPALAPLDPERLRKSREHGMPPLAYDLLVREGAWLPWLDALLAGYPAPANAAVGAALEQLREAEEGQRKAWAIALLSGQFDLLPAALVPFLGAALQVAWSHWLLGLEEGAVVETESRTLCPACGSPPMAGMIRQGGKETGLRYLSCSLCACEWHYVRIKCSHCEESKHLAYLSLEHDGQPAEKAVLRAETCPSCQGYLKQFYLEFDRHADALADDLASLALDMRLAEDGYLRRSPNLLLAPGGE | soluble
RLNLKAIAERSESLEDFFTRTLPHYCQQQIAIIDARCEFLYQQSHFFENSFLVKEGLINPERFVPMFGMYGLAEAVNLLCEKEGIAARYGKEAAANEVGYRISAQLAEFVANTPVKYGWQKRAMLHAQSGISSDIGTTPGARLPYGDEPDPITHLQTVAPHHAYYYSGISDILTLDETIKRNPQALVQLCLGAFKAGMREFTANVSGNDLVRVTGYMVRLSDLEKYRAEGSRTNTTWL | not soluble
